{"source": "patent US20210319279A1", "molecular_target": "SBE FLAG9 (three 3xFLAG domains joined by rigid linkers) displayed on the yeast cell wall as a fusion to truncated FLO11 (S. cerevisiae) (UniProt P08640)", "sequence (P08640 other isoform, or with tags, fused parts or gaps limits assumed)": "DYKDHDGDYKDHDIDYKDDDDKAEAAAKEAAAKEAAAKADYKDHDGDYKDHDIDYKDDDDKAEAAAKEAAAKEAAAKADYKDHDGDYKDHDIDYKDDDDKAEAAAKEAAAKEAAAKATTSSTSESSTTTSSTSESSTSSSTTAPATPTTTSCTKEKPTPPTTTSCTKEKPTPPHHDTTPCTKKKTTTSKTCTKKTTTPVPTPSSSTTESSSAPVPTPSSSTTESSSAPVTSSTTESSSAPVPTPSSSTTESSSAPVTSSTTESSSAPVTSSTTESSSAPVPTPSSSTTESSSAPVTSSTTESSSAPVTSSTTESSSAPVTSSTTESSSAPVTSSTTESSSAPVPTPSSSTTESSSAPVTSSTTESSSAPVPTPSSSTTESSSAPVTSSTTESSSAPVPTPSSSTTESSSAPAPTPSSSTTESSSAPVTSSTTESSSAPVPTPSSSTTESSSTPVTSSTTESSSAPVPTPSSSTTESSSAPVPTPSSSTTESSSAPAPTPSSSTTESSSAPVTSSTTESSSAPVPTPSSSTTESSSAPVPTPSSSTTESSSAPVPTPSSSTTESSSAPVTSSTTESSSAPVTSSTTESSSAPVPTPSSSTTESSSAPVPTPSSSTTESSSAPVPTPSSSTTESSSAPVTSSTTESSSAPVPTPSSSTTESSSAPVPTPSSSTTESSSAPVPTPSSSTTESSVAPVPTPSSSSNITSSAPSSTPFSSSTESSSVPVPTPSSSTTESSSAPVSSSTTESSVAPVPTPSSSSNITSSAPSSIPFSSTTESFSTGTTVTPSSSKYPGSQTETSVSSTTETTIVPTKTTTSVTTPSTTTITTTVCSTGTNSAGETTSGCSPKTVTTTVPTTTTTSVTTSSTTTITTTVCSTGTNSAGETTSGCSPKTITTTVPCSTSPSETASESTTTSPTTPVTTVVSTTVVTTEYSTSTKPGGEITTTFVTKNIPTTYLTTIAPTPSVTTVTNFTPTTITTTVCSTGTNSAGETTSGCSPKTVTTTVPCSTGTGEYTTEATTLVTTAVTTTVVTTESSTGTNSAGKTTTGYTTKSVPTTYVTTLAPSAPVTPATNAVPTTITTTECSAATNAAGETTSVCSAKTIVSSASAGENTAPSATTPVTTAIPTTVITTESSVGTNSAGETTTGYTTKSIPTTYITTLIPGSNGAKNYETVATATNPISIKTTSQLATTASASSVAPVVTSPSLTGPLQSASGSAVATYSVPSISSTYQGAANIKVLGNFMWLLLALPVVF", "experiment": "cell-based or functional assay", "data": [{"substance": "anti-FLAG M2 antibody (A2220 Sigma-Aldrich), covalently linked to agarose beads", "values": [{"measurement": "beta-lactamase reporter (nitrocefin-BLA analysis), fold-change against the negative control without beads; PIC assay with sX406, sX216 and regulatory sX437", "result": 2, "unit": "fold"}, {"measurement": "beta-lactamase reporter, fold-change against the negative control; OR operation, Experiment A (BaF beads only)", "result": "3 to 4", "unit": "fold"}, {"measurement": "nitrocefin hydrolysis readout (image intensity), fold-increase against negative controls at 6 hrs; PIC assay with immobilization, strains sX384 and sX387, BaF beads", "result": "6 to 10", "unit": "fold"}]}]}
